Numbered stars: 1 amine (or outer) side, 2 acyl side, 3 side chain; on linkers, the order of the positions; unused ones are H or OH. Square brackets hold non-standard residues; d marks the D form. Dhp = dehydrophenylalanine, Z isomer, O=C(/C(=C/c1ccccc1)N[*:1])[*:2]; Phe(3R-OH) = O=C([C@@H](N[*:1])[C@H](O[*:3])c1ccccc1)[*:2]; Phe(4-F) = N[C@@H](Cc1ccc(F)cc1)C(=O)O; 1Nal = N[C@@H](Cc1cccc2ccccc12)C(=O)O; Phe(ol) = N[C@H](CO)Cc1ccccc1; dPsa = D-O-acetylphenylserine; Psa = O-acetylphenylserine; Nva = CCC[C@H](N)C(=O)O; Abu = CC[C@H](N)C(=O)O; dPse = D-phenylserine
What follows are binders tested against T1, CDK2/cyclin A (UniProt P24941 1-298; P20248 1-432) (assay: cell-based or functional assay).

| Relative activity, Kinase Inhibition (CDK2/cyclin A kinase assay, pRb substrate, [ATP] = 100 µM) | Binder |
| --- | --- |
| 0.8 relative to H-His-Ala-Lys-Arg-Arg-Leu-Ile-Phe-NH2 (=1) | H-HAKRRLVF-NH2 [H-His-Ala-Lys-Arg-Arg-Leu-Val-Phe-NH2] |
| 0.4 relative to H-His-Ala-Lys-Arg-Arg-Leu-Ile-Phe-NH2 (=1) | H-HAKRRLFF-NH2 [H-His-Ala-Lys-Arg-Arg-Leu-Phe-Phe-NH2] |
| 1.2 relative to H-His-Ala-Lys-Arg-Arg-Leu-Ile-Phe-NH2 (=1) | H-HAKRRLLF-NH2 [H-His-Ala-Lys-Arg-Arg-Leu-Leu-Phe-NH2] |
| < 0.1 relative to H-His-Ala-Lys-Arg-Arg-Leu-Ile-Phe-NH2 (=1) | H-HAKRRLF-NH2 [H-His-Ala-Lys-Arg-Arg-Leu-Phe-NH2] |
| 0.5 relative to H-His-Ala-Lys-Arg-Arg-Leu-Ile-Phe-NH2 (=1) | H-HAKRRL[1Nal]F-NH2 (SMILES CC(C)C[C@H](NC(=O)[C@H](CCCNC(=N)N)NC(=O)[C@H](CCCNC(=N)N)NC(=O)[C@H](CCCCN)NC(=O)[C@H](C)NC(=O)[C@@H](N)Cc1c[nH]cn1)C(=O)N[C@@H](Cc1cccc2ccccc12)C(=O)N[C@@H](Cc1ccccc1)C(N)=O) [H-His-Ala-Lys-Arg-Arg-Leu-1Nap-Phe-NH2] |
| 0.2 relative to H-His-Ala-Lys-Arg-Arg-Leu-Ile-Phe-NH2 (=1) | H-HAKRRL[Nva]F-NH2 (SMILES CCC[C@H](NC(=O)[C@H](CC(C)C)NC(=O)[C@H](CCCNC(=N)N)NC(=O)[C@H](CCCNC(=N)N)NC(=O)[C@H](CCCCN)NC(=O)[C@H](C)NC(=O)[C@@H](N)Cc1c[nH]cn1)C(=O)N[C@@H](Cc1ccccc1)C(N)=O) [H-His-Ala-Lys-Arg-Arg-Leu-Nva-Phe-NH2] |

Target: T1, CDK2/cyclin A
Assay: cell-based or functional assay
Remark: another data set of the same source

| Relative activity, Kinase Inhibition (CDK2/cyclin A kinase assay, pRb substrate, [ATP] = 100 µM) | Binder |
| --- | --- |
| < 0.1 relative to H-His-Ala-Lys-Arg-Arg-Leu-Ile-Phe-NH2 (=1) | H-HAKRRLI[Phe(3R-OH)]-OH [H-His-Ala-Lys-Arg-Arg-Leu-Ile-L-Pse-OH] |
| < 0.1 relative to H-His-Ala-Lys-Arg-Arg-Leu-Ile-Phe-NH2 (=1) | H-HSKRRLI[Psa]-OH [H-His-Ser-Lys-Arg-Arg-Leu-Ile-L-Psa-OH] |
| 3.3 relative to H-His-Ala-Lys-Arg-Arg-Leu-Ile-Phe-NH2 (=1) | H-HAKRRLI[Dhp]-OH (SMILES CC[C@H](C)[C@H](NC(=O)[C@H](CC(C)C)NC(=O)[C@H](CCCNC(=N)N)NC(=O)[C@H](CCCNC(=N)N)NC(=O)[C@H](CCCCN)NC(=O)[C@H](C)NC(=O)[C@@H](N)Cc1c[nH]cn1)C(=O)N/C(=C\c1ccccc1)C(=O)O) [H-His-Ala-Lys-Arg-Arg-Leu-Ile-Dhp-OH] |
| < 0.1 relative to H-His-Ala-Lys-Arg-Arg-Leu-Ile-Phe-NH2 (=1) | H-HAKRRLI[dPsa]-OH [H-His-Ala-Lys-Arg-Arg-Leu-Ile-D-Psa-OH] |
| 22 relative to H-His-Ala-Lys-Arg-Arg-Leu-Ile-Phe-NH2 (=1) | H-HAKRRLI[Psa]-OH [H-His-Ala-Lys-Arg-Arg-Leu-Ile-[L-Psa]-OH] |
| 0.6 relative to H-His-Ala-Lys-Arg-Arg-Leu-Ile-Phe-NH2 (=1) | H-HAKRRLI[Phe(ol)] [H-His-Ala-Lys-Arg-Arg-Leu-Ile-Pheol] |
| < 0.1 relative to H-His-Ala-Lys-Arg-Arg-Leu-Ile-Phe-NH2 (=1) | H-HSKRRLI[dPsa]-OH [H-His-Ser-Lys-Arg-Arg-Leu-Ile-D-Psa-OH] |
| < 0.1 relative to H-His-Ala-Lys-Arg-Arg-Leu-Ile-Phe-NH2 (=1) | H-HAKRRLI[dPse]-OH [H-His-Ala-Lys-Arg-Arg-Leu-Ile-D-Pse-OH] |
| < 0.1 relative to H-His-Ala-Lys-Arg-Arg-Leu-Ile-Phe-NH2 (=1) | H-HSKRRLI[dPse]-OH [H-His-Ser-Lys-Arg-Arg-Leu-Ile-D-Pse-OH] |

Target: T1, CDK2/cyclin A
Assay: cell-based or functional assay
Remark: another data set of the same source

| Relative activity, Kinase Inhibition (CDK2/cyclin A kinase assay, pRb substrate, [ATP] = 100 µM) | Binder |
| --- | --- |
| 60 relative to H-His-Ala-Lys-Arg-Arg-Leu-Ile-Phe-NH2 (=1) | H-AA[Abu]RRLI[Phe(4-F)]-NH2 (SMILES CC[C@H](NC(=O)[C@H](C)NC(=O)[C@H](C)N)C(=O)N[C@@H](CCCNC(=N)N)C(=O)N[C@@H](CCCNC(=N)N)C(=O)N[C@@H](CC(C)C)C(=O)N[C@H](C(=O)N[C@@H](Cc1ccc(F)cc1)C(N)=O)[C@@H](C)CC) [H-Ala-Ala-Abu-Arg-Arg-Leu-Ile-pFPhe-NH2] |
| 80 relative to H-His-Ala-Lys-Arg-Arg-Leu-Ile-Phe-NH2 (=1) | H-AAKRRLI[Phe(4-F)]-NH2 (SMILES CC[C@H](C)[C@H](NC(=O)[C@H](CC(C)C)NC(=O)[C@H](CCCNC(=N)N)NC(=O)[C@H](CCCNC(=N)N)NC(=O)[C@H](CCCCN)NC(=O)[C@H](C)NC(=O)[C@H](C)N)C(=O)N[C@@H](Cc1ccc(F)cc1)C(N)=O) [H-Ala-Ala-Lys-Arg-Arg-Leu-Ile-pFPhe-NH2] |

— patent publication US20040176301A1 (CYCLACEL, published 2004)
